Several values for one entry are separate records, joined by “and”; a condition that tells them apart may be missing. Identical values can stand only once. Square brackets hold non-standard residues; d marks the D form. Peptide text beside a SMILES is read from it. * marks the point of attachment. ONp = O=[N+]([O-])c1ccc(O*)cc1; X2 = c1ccc(N=Nc2ccc(O*)cc2)cc1; X3 = O=[N+]([O-])c1cccc(O*)c1; X1 = Cc1cc(=O)oc2cc(O*)ccc12; Nva = CCC[C@H](N)C(=O)O
Tests used:
NS3/4A(1-631)/4A(1-54) = target: T1, NS3/4A(1-631)/4A(1-54) (Hepatitis C virus genotype 1a, UniProt P27958); assay: Cleavage efficiency of nitrophenyl and other ester based chromogenic substrates, spectrophotometric; assay type: biochemical, HCV 1a(H); details: 25 mM MOPS pH 6.5, 10% glycerol, 0.15 M NaCl, 0.2% lauryl maltoside
T1 construct: a noncovalent complex between NS4A (54 residues) and NS3 (631 residues); histidine tag (N, cleaved yes); made in house; host or cells: baculovirus system / insect cells
Description: The chromogenic substrates defined by SEQ ID NOs: 5-13 were synthetically produced as described above and tested for cleavage efficiency in 25 mM MOPS buffer, pH 6.5, containing 10% (v/v) glycerol, 0.15 M NaCl, 0.2% lauryl maltoside. The substrates were cleaved by NS3/4A(1-631)/4A(1-54) (see Example 1). The rate of product formation was monitored by a spectrophotometer, at 400 nm for 4Np, 370 nm for PAP, and 340 nm for 3Np and HMC.

[1] = target: (Ac-)[…]-(2-Cl-4-nitroanilide) (HCV)
[2] = target: Ac-DTEDVVP(Nva)-O-HMC (HCV)
[3] = target: Ac-DTEDVVA(Nva)-O-HMC (HCV)
[4] = target: Ac-DTEDVVP(Nva)-O-PAP (HCV)
[5] = target: Ac-DTEDVVA(Nva)-O-4Np (HCV)
[6] = target: Ac-DTEDVVA(Nva)-O-3Np (HCV)
[7] = target: Ac-DTEDVVA(Nva)-O-PAP (HCV)
[8] = target: biotinylated ester substrate
[9] = target: biotinylated amide substrates

Compound: CCC[C@H](NC(=O)[C@@H]1CCCN1C(=O)[C@@H](NC(=O)[C@@H](NC(=O)[C@H](CC(=O)O)NC(=O)[C@H](CCC(=O)O)NC(=O)[C@@H](NC(=O)[C@H](CC(=O)O)NC(C)=O)[C@@H](C)O)C(C)C)C(C)C)C(=O)Oc1ccc(N=Nc2ccccc2)cc1 [Ac-DTEDVVP(Nva)-O-PAP] (Ac-DTEDVVP[Nva]-X2)
- Km (NS3/4A(1-631)/4A(1-54)): 18 µM

Compound: CCC[C@H](NC(=O)[C@H](C)NC(=O)[C@@H](NC(=O)[C@@H](NC(=O)[C@H](CC(=O)O)NC(=O)[C@H](CCC(=O)O)NC(=O)[C@@H](NC(=O)[C@H](CC(=O)O)NC(C)=O)[C@@H](C)O)C(C)C)C(C)C)C(=O)Oc1cccc([N+](=O)[O-])c1 [Ac-DTEDVVA(Nva)-O-3Np] (Ac-DTEDVVA[Nva]-X3)
- Km (NS3/4A(1-631)/4A(1-54)): 48 µM

Compound: CCC[C@H](NC(=O)[C@H](C)NC(=O)[C@@H](NC(=O)[C@@H](NC(=O)[C@H](CC(=O)O)NC(=O)[C@H](CCC(=O)O)NC(=O)[C@@H](NC(=O)[C@H](CC(=O)O)NC(C)=O)[C@@H](C)O)C(C)C)C(C)C)C(=O)Oc1ccc(N=Nc2ccccc2)cc1 [Ac-DTEDVVA(Nva)-O-PAP] (Ac-DTEDVVA[Nva]-X2)
- Km (NS3/4A(1-631)/4A(1-54)): 17 µM

Compound: CCC[C@H](NC(=O)[C@@H]1CCCN1C(=O)[C@@H](NC(=O)[C@@H](NC(=O)[C@H](CC(=O)O)NC(=O)[C@H](CCC(=O)O)NC(=O)[C@@H](NC(=O)[C@H](CC(=O)O)NC(C)=O)[C@@H](C)O)C(C)C)C(C)C)C(=O)Oc1ccc2c(C)cc(=O)oc2c1 [Ac-DTEDVVP(Nva)-O-HMC] (Ac-DTEDVVP[Nva]-X1)
- Km (NS3/4A(1-631)/4A(1-54)): 40 µM

Compound: HCV NS3(1-631)/4A(1-54) protease, non-covalent complex of full-length HCV 1a(H) NS3 with amino acids (enzyme)
- kcat/Km (…-(4-nitroanilide) (HCV)): 15 M⁻¹ s⁻¹ and 45 M⁻¹ s⁻¹
- kcat/Km [1]: 10 M⁻¹ s⁻¹
- kcat/Km [2]: 8400 M⁻¹ s⁻¹
- kcat/Km ([…](Nva)-O-3Np (HCV)): 11100 M⁻¹ s⁻¹
- kcat/Km (Ac-[…](Nva)-O-4Np (HCV)): 25000 M⁻¹ s⁻¹
- kcat/Km [3]: 8400 M⁻¹ s⁻¹
- kcat/Km [4]: 13000 M⁻¹ s⁻¹
- kcat/Km [5]: 38000 M⁻¹ s⁻¹
- kcat/Km [6]: 7300 M⁻¹ s⁻¹
- kcat/Km [7]: 4000 M⁻¹ s⁻¹
- catalytic efficiency [8]: < 460000 M⁻¹ s⁻¹
- catalytic efficiency [9]: < 30000 M⁻¹ s⁻¹

Compound: CCC[C@H](NC(=O)[C@H](C)NC(=O)[C@@H](NC(=O)[C@@H](NC(=O)[C@H](CC(=O)O)NC(=O)[C@H](CCC(=O)O)NC(=O)[C@@H](NC(=O)[C@H](CC(=O)O)NC(C)=O)[C@@H](C)O)C(C)C)C(C)C)C(=O)Oc1ccc([N+](=O)[O-])cc1 [Ac-DTEDVVA(Nva)-O-4Np] (Ac-DTEDVVA[Nva]-ONp)
- Km (NS3/4A(1-631)/4A(1-54)): 16 µM

Compound: CCC[C@H](NC(=O)[C@H](C)NC(=O)[C@@H](NC(=O)[C@@H](NC(=O)[C@H](CC(=O)O)NC(=O)[C@H](CCC(=O)O)NC(=O)[C@@H](NC(=O)[C@H](CC(=O)O)NC(C)=O)[C@@H](C)O)C(C)C)C(C)C)C(=O)Oc1ccc2c(C)cc(=O)oc2c1 [Ac-DTEDVVA(Nva)-O-HMC] (Ac-DTEDVVA[Nva]-X1)
- Km (NS3/4A(1-631)/4A(1-54)): 20 µM

Source: patent US6251583A, “Peptide substrates for HCV NS3 protease assays” (Schering Corporation, priority 1999, dated 2001)
